# Assay results: publication PMC11783328
# Key:
# [1] = target: BG505 SOSIP.v4.1-GT1.1 (HIV-1 (isolate BG505)) (UniProt Q2N0S6); assay: cryo-EM structure
# [2] = target: BG505 SOSIP.v4.1 GT1.1 trimer (BG505 SOSIP germline trimer 1.1) (HIV-1 (isolate BG505)) (UniProt Q2N0S6); assay: cryo-EM structure
Binder,stoichiometry N (Ab:Env trimer) [1],stoichiometry N [2]
"21M20 Fab (Fab, V domains shown) VH: EVQLVESGGGLAKPGGSLRLSCAASGFTFSRSIMHWVRQAPGKGLEWVSTINYAGSTYYADSVRGRFVISRDNSKNTLSLQMNSVRPEDRAVYHCAKDKEGYYSGGYPLWYFDLWGPGTPVTISS VL: DVQMTQSPSSLSASVGDKVSITCRASQGIADALAWYQQKPGKAPKLLIYGASNLESGVPSRFSGSGSGTDFSLTISSLQAEDFAVYYCQQRNSHPPTFGQGTRVEVK",1,
"21N13 Fab (Fab, V domains shown) VH: QVQLQESGPGRVKPSETLSLTCAVSDDSFGSSYFYWSWIRQAPGKGLEWIGYIAYSGGVRYNPSLSSRVTISRNIHERQFYLRLTSMTAADTAVYYCARHCEDDYGYYSAAQSYGLDSWGQGIAVTVSP VL: DIQMTQSPSSLSASVGDRVTITCRTSENVNNCLNWYQQKPGKAPKLLIYRTSTLQRGVPSRFSGTGSGTDYTLTISSLQSEDFGTYYCQHYYGTPLTFGGGTMVDIK",,3
